Data published in article PMC7797058, “Characterization of the first tetrameric transcription factor of the GntR superfamily with allosteric regulation from the bacterial pathogen Agrobacterium fabrum” (Nucleic Acids Research, 2020).
Residue numbers refer to the chain shown, from its start. In names and notes the source's numbering stands.

What was measured:
[1] = target: T1, Atu1419 (Agrobacterium fabrum, UniProt A9CJ36); assay: isothermal titration calorimetry; type: binding
T1 construct: theoretical monomer mass ~26542 Da; homotetramer; co-purified Zn2+
T1 sequence (A9CJ36 1-244): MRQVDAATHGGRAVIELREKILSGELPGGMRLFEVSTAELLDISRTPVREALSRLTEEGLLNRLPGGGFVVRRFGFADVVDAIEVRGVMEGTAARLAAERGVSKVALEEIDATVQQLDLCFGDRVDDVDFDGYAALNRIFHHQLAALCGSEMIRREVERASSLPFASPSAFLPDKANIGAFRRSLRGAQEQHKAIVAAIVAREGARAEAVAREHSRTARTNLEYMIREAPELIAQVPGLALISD

[2] = target: T1, Atu1419; assay: differential scanning calorimetry; type: binding; details: 10 µM protein, 100 µM MEF, 1 K/min; absolute Tm with ligand, apo reference Tm 52.6 °C
[3] = target: T2, Atu1419 (Agrobacterium fabrum C58) (UniProt A9CJ36); assay: EMSA; details: EMSA: 50 mM Tris-HCl pH 8, 150 mM NaCl, 30 nM DNA, 30 min at room temperature; gel 6% or 12% PAGE in TBE at 4 C
T2 sequence: T1 sequence (A9CJ36 1-244)

[4] = target: T3, Atu1419 (Agrobacterium fabrum C58, UniProt A9CJ36 1-244); assay: X-ray crystallography; Zn2+, citrate (orientation B); EMSA: 50 mM Tris-HCl pH 8, 150 mM NaCl, 30 nM DNA, 30 min at room temperature; gel 6% or 12% PAGE in TBE at 4 C; details: protein: recombinant; tags: C-terminal 6xHis; chain copies: 4; blunt; self-complementary, 2 strand copies
T3 sequence: T1 sequence (A9CJ36 1-244)

[5] = target: the molecule itself; assay: SEC + SEC-MALS; apo Atu1419 at 25 uM; Superdex 200 10/300 GL; 50 mM Tris pH 8, 150 mM NaCl
[6] = target: the molecule itself; assay: not stated; oligomeric state of purified Atu1419-H3A; method not given

Q: What does the source list for `Nc1nc2c(c(=O)[nH]1)N1CN(c3ccc(C(=O)N[C@@H](CCC(=O)O)C(=O)O)cc3)C[C@H]1CN2` [MEF, N5,N10-methylenetetrahydrofolate]?
A: Kd [1]: ~20 µM; Tm [2]: 63.5 °C

Q: For “AAGCGCCTGAACTGATTGCGCAGGTTCCGGGTCTCGCACTCATCAGCGACTAAGCGGCGGAAATCGCTGCAAATCCAGGGGTGGCGCCTTTTGGCGCCGCCTTTATTTTTGTCGACACCCTCCCTGACGCGGTAATTTTGCGCTTGCAATTTATCAAAGCACAGCGTTTCATGTATACATAGATGCGATTGCCAGGGAGGAGATGACAATGGCAAATTCCAGTCTGACCGAGGTTTTGAAGCAATATCCGAACCCCGTTGAAATGCTC (double strand) [Patu1420]”, which binding [3] is on record?
A: Its binding is “binds”.

Q: Which binding [3] does the source give for “GGTGGGACTGGTCAAACAACACGGCACCCTCGCGCCATGCGGCCTGCTCGGAACGCCAGTTGCTGAACTCACCGGCGACAACCGGGTATACATACATTCCGATTTTTGAGTTGCGGAGCATTTCAACGGGGTTCGGATATTGCTTCAAAACCTCGGTCAGACTGGAATTTGCCATTGTCATCTCCTCCCT (double strand) [P2-atu1420]” here?
A: Its binding is “binds”.

B1: 10-mer palindrome (dsDNA)
DNA 1: ATGTATACAT
DNA 2: ATGTATACAT
Q: Does B1 bind [4]?
A: Result: binds

B2: Atu1419 transcriptional regulator (GntR superfamily, VanR group) of Agrobacterium fabrum (natural protein, UniProt A9CJ36 1-244, looked up)
chain: T1 sequence (A9CJ36 1-244)
notes: Atu1419, GntR-type transcriptional repressor of the SpG8-1b region, Agrobacterium fabrum C58; theoretical molecular weight about 26 542 Da for a monomer; Co-purifies with one Zn2+ ion per subunit; also called apo Atu1419; wild-type Atu1419; source: E. coli BL21, pET-20b, purified (His-Trap HP, Superdex 200 gel filtration)
Q: With B2 as the molecule, how does the “stoichiometry N” value [5] read?
A: Its value is 4.

B3: Atu1419-H3A mutant (H192A, H141A and H214A) (natural protein)
chain: T1 sequence (A9CJ36 1-244) with H141A, H192A, H214A
notes: The PDB entries are of the wild-type parent; the mutant could not be crystallised; also called triple point mutant; source: E. coli BL21, synthetic gene (Genscript) in pET-20b, expressed and purified as the wild-type protein
Q: How did the “stoichiometry N” value [6] turn out when B3 was run?
A: The value was 4.
